Assay results: patent US20130012436A1 (Bristol-Myers Squibb, published 2013)
Numbering of substitutions follows the chain as printed. Blank lines part the entries; values can stand above or below the binder they belong to.

Legend:
human serum albumin = biological target: T1, human serum albumin (human, UniProt P02768 25-609); experiment: SPR (Biacore), albumin captured on CM5 chip, SABA flowed
T1 construct: also called HSA
Procedure: (§1) The kinetics of selected SABA clones purified from HTPP and/or midscaled material were determined by capturing the respective serum albumin (HSA/RhSA/MuSA) on the surface of a Biasensor CM5 chip and flowing a concentration series of SABAs over both the reference flow cell and the captured albumins. In addition, binding to albumin was carried out under various pH conditions ranging from pH 5.5 to pH 7.4. […] SABA1.1 fits biochemical criteria for pH resistance and affinity/kinetics down to pH 5.5. […]

rhesus serum albumin = biological target: T2, rhesus serum albumin (rhesus, UniProt Q28522 17-600); experiment: as above
T2 construct: also called RhSA
Procedure: as §1

murine serum albumin = biological target: T3, murine serum albumin (mouse, UniProt P07724 25-608); experiment: SPR, albumin captured on CM5 chip
T3 construct: also called MuSA; mouse serum albumin
Procedure: The kinetics of selected SABA clones purified from HTPP and/or midscaled material were determined by capturing the respective serum albumin (HSA/RhSA/MuSA) on the surface of a Biasensor CM5 chip and flowing a concentration series of SABAs over both the reference flow cell and the captured albumins. In addition, binding to albumin was carried out under various pH conditions ranging from pH 5.5 to pH 7.4. […] SABA1.1 fits biochemical criteria for pH resistance and affinity/kinetics down to pH 5.5.

human IL-23 [1] = biological target: T4, human IL-23 (human, UniProt Q9NPF7 20-189; P29460 23-328); experiment: SPR (ProteOn XPR), human IL-23 directly immobilized, 25 C
T4 construct: also called hIL-23; human recombinant IL-23
T4 sequence (looked up) 1: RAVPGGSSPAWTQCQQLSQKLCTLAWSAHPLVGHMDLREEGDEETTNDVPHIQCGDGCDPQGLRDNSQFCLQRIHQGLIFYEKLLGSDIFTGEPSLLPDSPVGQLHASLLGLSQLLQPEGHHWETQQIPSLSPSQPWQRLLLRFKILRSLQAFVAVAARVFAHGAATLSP
T4 sequence (looked up) 2: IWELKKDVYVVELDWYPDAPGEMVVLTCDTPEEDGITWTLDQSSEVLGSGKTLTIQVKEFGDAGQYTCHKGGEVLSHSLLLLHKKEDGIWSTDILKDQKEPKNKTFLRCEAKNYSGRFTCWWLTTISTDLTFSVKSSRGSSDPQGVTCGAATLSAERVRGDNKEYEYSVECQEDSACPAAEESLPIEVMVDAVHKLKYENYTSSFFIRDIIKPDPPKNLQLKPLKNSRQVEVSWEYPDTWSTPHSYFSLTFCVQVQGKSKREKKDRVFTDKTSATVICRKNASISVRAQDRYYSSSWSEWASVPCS
Procedure: (§2) The binding characteristics were characterized by Surface Plasmon Resonance (SPR). Human IL-23 was immobilized at two to four levels in one dimension of a ProteOn XPR (Bio-Rad) chip surfaces and exposed to 6 different concentrations of anti-IL-23 adnectins in the other dimension of the same SPR chip surface. This allowed kinetic determination in the absence of regeneration. Duplicate chips were used for kinetic determinations at 25° C. and 37° C. Evaluation of the kinetic parameters was performed using the Langmuir interaction model and constant parameter fitting with the ProteOn Manager software.
(§3) Even at 37° C. the off rates were close to the limit of detection for SPR technologies so it is possible that the reported dissociation constant measurements are under-estimates.

human IL-23 [2] = biological target: T4, human IL-23; experiment: SPR, Adnectin captured by anti-His mAb, IL-23 injected
Procedure: All surface plasmon experiments were conducted in HBS-EP (10 mM Hepes 150 mM NaCl 3 mM EDTA 0.05% Surfactant P20) at 25° C. IL-23 was injected over anti-His mAb captured Adnectins for 2 minutes followed by a 10 minute dissociation phase. Evaluation of the binding specificity was completed using Biacore T100 evaluation software. Additional detailed methods are described in Example 4.

human IL-23 [3] = biological target: T4, human IL-23; experiment: cell-based or functional assay
human IL-23 [4] = biological target: T4, human IL-23; experiment: cell-based or functional assay; remark: listed apart in the source
human IL-23 [5] = biological target: T4, human IL-23; experiment: KinExA, solution phase, adnectin titrated, unbound IL-23 captured on non-PEGylated ATI001045 matrix
Procedure: The solution affinity of ATI001045 and ATI001047 for human IL-23 was also measured using an alternate format in the KinExA. Duplicate titrations of adnectins were performed for each of three (ATI001045) or single (ATI001047) concentrations of human IL-23 (quadruplicate for the lowest concentration). The relative unbound human IL-23 concentration was measured by capture on a non-PEGylated ATI001045 solid matrix followed by detection with a fluorescently labeled antibody that recognizes the p40 subunit of hIL-23.

human IL-12 = biological target: T5, human IL-12 (human, UniProt P29459 23-219; P29460 23-328); experiment: SPR, Adnectin captured on immobilized anti-His antibody
T5 construct: heterodimeric cytokine; also called recombinant human IL-12
T5 sequence (looked up) 1: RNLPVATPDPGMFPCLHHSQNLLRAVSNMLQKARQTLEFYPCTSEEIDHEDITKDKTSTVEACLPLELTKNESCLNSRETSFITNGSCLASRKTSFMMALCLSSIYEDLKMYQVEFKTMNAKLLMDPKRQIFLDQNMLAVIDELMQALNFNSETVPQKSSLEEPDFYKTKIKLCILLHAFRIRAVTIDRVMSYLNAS
T5 sequence (looked up) 2: T4 sequence (looked up) 2
Procedure: Adnectins listed in Table 2 as well as ATI001016 were used to examine the biochemical selectivity towards IL-23/IL-12. The binding analysis involved the capture of anti-IL-23 Adnectins on immobilized anti-His antibody followed by flow of IL-23 or IL-12 over the Adnectin. The selectivity of the Adnectins for IL-23 was assessed by comparing the binding signal for a 100 fold higher concentration of IL-12 over IL-23.

human IL-23 [6] = biological target: T4, human IL-23; experiment: cell-based or functional assay; remark: listed apart in the source
human IL-23 [7] = biological target: T4, human IL-23; experiment: KinExA, solution phase, hIL-23 titrated, unbound ATI001045 captured on IL-23 matrix
Procedure: The solution affinity of ATI001045 for human IL-23 was measured using a Kinetic Exclusion Assay (KinExA). In one format duplicate titrations of hIL-23 were performed for each of three concentrations. The relative unbound ATI001045 concentration was measured by capture on a human IL-23 solid matrix followed by detection with a fluorescently labeled antibody that recognizes the Adnectin scaffold. Due to technical limitations, the lowest concentration that could be tested was 0.75 nM.

human IL-23 [8] = biological target: T4, human IL-23; experiment: SPR (ProteOn XPR), human IL-23 directly immobilized, 37 C
Procedure: as §2, §3

T2 sequence (Q28522 17-600 limits assumed): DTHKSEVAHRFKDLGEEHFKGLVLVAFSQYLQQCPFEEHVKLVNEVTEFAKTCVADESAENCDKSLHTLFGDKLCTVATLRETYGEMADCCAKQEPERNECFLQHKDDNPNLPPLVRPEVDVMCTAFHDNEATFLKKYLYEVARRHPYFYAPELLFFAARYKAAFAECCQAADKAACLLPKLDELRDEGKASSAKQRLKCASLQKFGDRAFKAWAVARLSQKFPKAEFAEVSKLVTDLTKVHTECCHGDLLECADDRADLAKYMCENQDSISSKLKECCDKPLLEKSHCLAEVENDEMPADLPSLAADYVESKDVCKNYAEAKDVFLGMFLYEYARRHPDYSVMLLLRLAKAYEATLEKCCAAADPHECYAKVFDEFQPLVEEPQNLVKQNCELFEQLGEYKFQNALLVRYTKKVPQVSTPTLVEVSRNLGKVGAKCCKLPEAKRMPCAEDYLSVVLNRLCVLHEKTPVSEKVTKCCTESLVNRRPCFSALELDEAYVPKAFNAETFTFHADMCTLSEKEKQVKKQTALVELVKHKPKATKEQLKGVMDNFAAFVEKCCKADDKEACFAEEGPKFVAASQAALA
T1 sequence (P02768 25-609 limits assumed): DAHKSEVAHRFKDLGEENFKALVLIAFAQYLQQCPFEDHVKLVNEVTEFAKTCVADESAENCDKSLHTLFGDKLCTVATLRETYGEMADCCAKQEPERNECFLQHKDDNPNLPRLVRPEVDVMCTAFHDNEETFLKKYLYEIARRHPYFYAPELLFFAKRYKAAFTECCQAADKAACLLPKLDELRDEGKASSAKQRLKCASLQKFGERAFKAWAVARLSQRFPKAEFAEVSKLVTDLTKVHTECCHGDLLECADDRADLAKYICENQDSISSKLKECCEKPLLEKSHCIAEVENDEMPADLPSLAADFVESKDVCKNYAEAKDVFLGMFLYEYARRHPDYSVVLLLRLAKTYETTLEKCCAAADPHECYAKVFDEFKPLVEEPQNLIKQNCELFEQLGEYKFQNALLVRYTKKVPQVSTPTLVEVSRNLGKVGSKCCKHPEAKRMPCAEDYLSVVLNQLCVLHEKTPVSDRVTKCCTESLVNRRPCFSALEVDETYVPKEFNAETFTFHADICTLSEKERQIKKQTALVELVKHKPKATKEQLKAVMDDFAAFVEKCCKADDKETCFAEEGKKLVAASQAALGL

B2: 1571G04 (designed binder)
chain: MGVSDVPRDLEVVAATPTSLLISWGHYPLHVRYYRITYGETGGNSPVQEFTVPPRSHTATISGLKPGVDYTITVYAVTYYAQENYKEIPISINYRTEIDKPSQHHHHHH
notes: captured by anti-His mAb
- Kd (human IL-23 [1]): 0.2 nM
- koff (human IL-23 [1]): 1.2e-05 s⁻¹
- kon (human IL-23 [1]): 57000 M⁻¹ s⁻¹
- Kd (human IL-23 [2]): 2.1 nM
- koff (human IL-23 [2]): 0.000361 s⁻¹
- kon (human IL-23 [2]): 170000 M⁻¹ s⁻¹
- IL-17 EC50 (human IL-23 [3]): 1.4 nM
- IL-22 EC50 (human IL-23 [3]): 1.3 nM
- PBMNC pSTAT3 IC50 (nM) (human IL-23 [3]): 0.23 nM
- Kit 225 pSTAT3 IC50 (nM) (human IL-23 [4]): 0.1 nM

B3: 1572C09 (designed binder)
chain: MGVSDVPRDLEVVAATPTSLLISWGHYPMHIRYYRITYGETGGNSPVQEFTVPTPKHTATISGLKPGVDYTITVYAVTYYNEADYSQIPISINYRTEIDKPSQHHHHHH
notes: captured by anti-His mAb
- kon (human IL-23 [2]): 60700 M⁻¹ s⁻¹
- IL-17 EC50 (human IL-23 [3]): 7.9 nM
- IL-22 EC50 (human IL-23 [3]): 5.3 nM
- Kit 225 pSTAT3 IC50 (nM) (human IL-23 [4]): 0.5 nM

B4: 1572G06 (designed binder)
chain: B2 chain with P54R, R55Y, S56K, H57Y
notes: captured by anti-His mAb
- kon (human IL-23 [2]): 105000 M⁻¹ s⁻¹
- IL-17 EC50 (human IL-23 [3]): 1.6 nM
- IL-22 EC50 (human IL-23 [3]): 1.9 nM
- PBMNC pSTAT3 IC50 (nM) (human IL-23 [3]): 0.21 nM
- Kit 225 pSTAT3 IC50 (nM) (human IL-23 [4]): 0.05 nM

B5: 1571H03 (designed binder)
chain: B2 chain with P54N, S56V, H57Y, N84E, K86H, E87I
notes: captured by anti-His mAb
- Kd (human IL-23 [2]): 3.4 nM
- koff (human IL-23 [2]): 0.000395 s⁻¹
- kon (human IL-23 [2]): 118000 M⁻¹ s⁻¹
- IL-17 EC50 (human IL-23 [3]): 2.9 nM
- IL-22 EC50 (human IL-23 [3]): 2.3 nM
- Kit 225 pSTAT3 IC50 (nM) (human IL-23 [4]): 0.4 nM

B6: 1571G06 (designed binder)
chain: B3 chain with M29L, I31L, T54R, P55T, H57Y, N81K
notes: captured by anti-His mAb
- Kd (human IL-23 [2]): 1.81 nM
- koff (human IL-23 [2]): 0.000238 s⁻¹
- kon (human IL-23 [2]): 131000 M⁻¹ s⁻¹
- IL-17 EC50 (human IL-23 [3]): 3.5 nM
- IL-22 EC50 (human IL-23 [3]): 5.1 nM
- PBMNC pSTAT3 IC50 (nM) (human IL-23 [3]): 0.93 nM
- Kit 225 pSTAT3 IC50 (nM) (human IL-23 [4]): 0.3 nM

B9: ATI001014 (designed binder)
chain: MGVSDVPRDLEVVAATPTSLLISWGHYPLHVRYYRITYGETGGNSPVQEFTVPPRSHTATISGLKPGVDYTITVYAVTYYAQENYKEIPISINYRTGSGC
modifications: pegylated at the C-terminal GSGC linker (Cys)
notes: not shown: his-tag
- Kd (human IL-23 [1]): 1.8 nM
- koff (human IL-23 [1]): 1.7e-05 s⁻¹
- kon (human IL-23 [1]): 9400 M⁻¹ s⁻¹

B13: ATI000934 (designed binder)
chain: MGVSDVPRDLEVVAATPTSLLISWGHYPLHLRYYRITYGETGGNSPVQEFTVPRTKYTATISGLKPGVDYTITVYAVTYYKEADYSQIPISINYRTEIDKPCQ
modifications: pegylated at the C-terminal EIDKPCQ (Cys)
notes: also called ATI 934; not shown: his-tag
- Kd (human IL-23 [1]): 1.9 nM
- koff (human IL-23 [1]): 1.8e-05 s⁻¹
- kon (human IL-23 [1]): 9400 M⁻¹ s⁻¹

More lines, now with the values ahead:

- Kd (human serum albumin): 33.8 nM
- koff (human serum albumin): 0.000171 s⁻¹
- Kd (rhesus serum albumin): 63.6 nM
- koff (rhesus serum albumin): 0.000442 s⁻¹
- binding result (murine serum albumin): no binding
B1: SABA2.1 (designed binder)
chain: MGVSDVPRDLEVVAATPTSLLISWPKYDKTGHYYRITYGETGGNSPVQEFTVPTRQTTATISGLKPGVDYTITVYAVSKDDYYPHEHRPISINYRTEIDKPSQHHHHHH

- Kd (human serum albumin): 412 nM
- koff (human serum albumin): 0.000782 s⁻¹
- Kd (rhesus serum albumin): > 1000 nM
- koff (rhesus serum albumin): 0.00383 s⁻¹
- binding result (murine serum albumin): no binding
B7: SABA4.1 (designed binder)
chain: MGVSDVPRDLEMVAATPTSLLISWEDDSYYSRYYRITYGETGGNSPVQEFTVPSDLYTATISGLKPGVDYTITVYAVTYDVTDLIMHEPISINYRTEIDKPSQHHHHHH

- Kd (human serum albumin): 863 nM
- koff (human serum albumin): 0.0682 s⁻¹
- Kd (rhesus serum albumin): 431 nM
- koff (rhesus serum albumin): 0.0337 s⁻¹
- binding result (murine serum albumin): no binding
B8: SABA3.1 (designed binder)
chain: MGVSDVPRDLEVVAATPTSLLISWSNDGPGLSYYRITYGETGGNSPVQEFTVPSSQTTATISGLKPGVDYTITVYAVSYYTKKAYSAGPISINYRTEIDKPSQHHHHHH

- Kd (human IL-23 [5]): 0.0363 nM
- Kd (human IL-23 [1]): 1.6 nM
- koff (human IL-23 [1]): 2e-05 s⁻¹
- kon (human IL-23 [1]): 13000 M⁻¹ s⁻¹
B10: ATI001047 (designed binder)
chain: B9 chain
modifications: pegylated at the C-terminal GSGC linker (Cys)

- binding result (human IL-12): no binding (tested: 1 µM)
B11: ATI001016 (designed binder)
chain: B9 chain with P54S, S56K, H57Y, A81K, Q82E, E83A, K86R
modifications: pegylated at the C-terminal GSGC linker (Cys)
notes: not shown: his-tag

- Kd (human IL-23 [5]): 0.0094 nM
- Kd (human IL-23 [1]): 0.17 nM
- koff (human IL-23 [1]): 2.5e-05 s⁻¹
- kon (human IL-23 [1]): 150000 M⁻¹ s⁻¹
- IL-17 production by human T cells, EC50 (human IL-23 [6]): 2 nM
- Kd (human IL-23 [7]): 0.051 nM
- Kd (human IL-23 [8]): 0.27 nM
- koff (human IL-23 [8]): 5.5e-05 s⁻¹
- kon (human IL-23 [8]): 203000 M⁻¹ s⁻¹
B12: ATI001045 (designed binder)
chain: B9 chain with P54S, S56K, H57Y, A81K, Q82E, E83A, K86R
modifications: pegylated at the C-terminal GSGC linker (Cys)

- Kd (human serum albumin): 47.2 nM
- koff (human serum albumin): 0.000457 s⁻¹
- Kd (rhesus serum albumin): 778 nM
- koff (rhesus serum albumin): 0.00545 s⁻¹
- binding result (murine serum albumin): no binding
B14: SABA1.1 (designed binder)
chain: MGVSDVPRDLEVVAATPTSLLISWHSYYEQNSYYRITYGETGGNSPVQEFTVPYSQTTATISGLKPGVDYTITVYAVYGSKYYYPISINYRTEIDKPSQHHHHHH
